According to paper PMC12307654, “Time-dependent catalytic activity in aging condensates” (Nature Communications, 2025):

Substrate: C=C(O[C@H]1C=C[C@H](C(=O)CCC(=O)O)[C@@H](C(=O)O)[C@@H]1O)C(=O)O
Experiment: purified protein
Format: biochemical, Escherichia coli
Settings: free enzyme without scaffold, 20 mM Tris, 150 mM NaCl, 0.5 mM AEBSF, 0.1 mM DTT, 0.1% Triton X-100, 10% glycerol, pH 7.4, room temperature

B1: MenH-RIDD (Escherichia coli K-12) (protein)
chain: MILHAQAKHGKPGLPWLVFLHGFSGDCHEWQEVGEAFADYSRLYVDLPGHGGSAAISVDGFDDVTDLLRKTLVSYNILDFWLVGYSLGGRVAMMAACQGLAGLCGVIVEGGHPGLQNAEQRAERQRSDRQWVQRFLTEPLTAVFADWYQQPVFASLNDDQRRELVALRSNNNGATLAAMLEATSLAVQPDLRANLSARTFAFYYLCGERDSKFRALAAELAADCHVIPRAGHNAHRENPAGVIASLAQILRF
notes: full-length MenH fused to the RIDD docking peptide tag; gene from laboratory stock; free enzyme without FIB1-GFP-RIAD scaffold
  Km: 12.75 ± 1.68 µM
  kcat: 92.15 ± 5.83 min⁻¹
